From the Human Domainome abundance scans (Beltran et al. 2025)

B1: Chromodomain-helicase-DNA-binding protein 5, residues 338 to 390; numbered along this chain, Q8TDI0 (parent)
chain: YETDHQDYCEVCQQGGEIILCDTCPRAYHLVCLDPELEKAPEGKWSCPHCEKE

Variants of: B1
Assay: abundance fitness (aPCA) (normalised: wild type 0, dead -1); higher = more abundant; growth selection in yeast, the domain comes from the species named
Settings: Homo sapiens

Abundance fitness of substitutions, site by site:
E36: L -0.093 | H -0.18 | Y -0.35 | W -0.321 | K 0.093 | A -0.033 | V 0.205 | G 0.014 | M 0.069 | F -0.237 | P 0.087 | D 0.139 | Q 0.046 | I -0.057 | N -0.166 | C -0.067 | T -0.042 | S -0.163
P48: V -0.04 | N 0.014 | M 0.107 | I 0.025 | Q -0.087 | T -0.006 | S 0.016 | F 0.124 | E -0.017 | H -0.484 | W 0.01 | C 0.016 | Y -0.022
C47: G -0.797 | H -0.248 | P -0.96 | L -0.855 | R -0.922 | F -0.765 | T -0.43 | D 0.064 | Q -0.918 | M -0.945 | W -0.58 | A -0.841 | I -0.95 | K -0.599 | N -0.953 | S -0.609 | E -0.9 | Y -1.2 | V -0.773
G43: K 0.057 | A -0.192 | Q -0.074 | C -0.117 | L -0.096 | S 0.087 | V 0.029 | P 0.032 | T 0.235 | I -0.169 | M -0.088 | R -0.11 | E 0.029 | H 0.166 | D 0.044 | Y -0.323 | F -0.138 | N 0.23 | W -0.223
C32: H -0.765 | N -0.579 | V -0.618 | E -0.52 | D -0.806 | A -1 | I -0.786 | Y -0.777 | P -0.885 | T -1.02 | K -1.03 | Q -0.982 | R -0.94 | L -0.993 | M -0.926 | G -0.969
A40: F 0.3 | P -0.023 | Q -0.273 | H -0.094 | N 0.187 | R -0.072 | G -0.168 | S 0.024 | V -0.033 | M 0.017 | D -0.243 | I 0.131 | K -0.218 | Y -0.23 | W -0.404 | T -0.088 | C -0.396 | E -0.274
P35: T 0.069 | I -0.209 | R -0.096 | Q -0.058 | N -0.211 | W -0.428 | Y 0.027 | M 0.121 | V 0.03 | F -0.915 | L -0.078 | H -0.524 | S -0.057 | C -0.313 | E 0.001 | K 0.082 | G 0.181
L37: P -0.085 | E -0.566 | H -0.069 | G 0.032 | W -0.496 | M -0.152 | K -0.04 | S 0.211 | R 0.115 | N -0.102 | Y -0.237 | T 0.101 | C -0.094 | V -0.026 | F -0.147
V31: G 0.069 | E 0.257 | S -0.145 | P 0.106 | Y -0.368 | C -0.325 | N -0.193 | I -0.205 | W -0.566 | H 0.018 | Q -0.315 | A -0.046 | M -0.383 | D -0.157 | L -0.104 | R -0.27 | T -0.023 | F 0.047 | K -0.314
D34: P -0.15 | F -0.058 | W -0.516 | R -0.125 | V -0.14 | M -0.403 | Q -0.098 | E 0.266 | A 0.052 | H 0.039 | C -0.161 | I -0.313 | N -0.354 | Y -0.269 | G -0.167 | K -0.347 | S 0.093 | T -0.195 | L -0.201
H49: G 0.071 | N 0.104 | E -0.225 | M -0.234 | A -0.011 | K 0.041 | L -0.176 | D 0.422
L33: R -0.281 | T 0.163 | V -0.034 | E -0.414 | I -0.235 | S 0.176 | F -0.013 | H 0.046 | G -0.389 | Y 0.064 | A -0.085 | W 0.032 | N -0.311 | M 0.185 | C -0.272 | P -0.223
P41: T -0.17 | E -0.114 | R -0.075 | A 0.058 | L -0.135 | C -0.379 | W -0.323 | N 0.18 | M -0.124 | V -0.096 | I 0.117 | G -0.106 | F -0.164 | Y -0.443 | Q -0.568 | K -0.118 | H 0.056
E42: L -0.05 | V 0.068 | T 0.014 | Q -0.224 | P -0.184 | H -0.068 | W -0.318 | F -0.413 | I -0.019 | M 0.138 | K -0.563 | S -0.241 | D -0.013 | Y -0.076 | G -0.117 | A -0.113 | R -0.085
W45: K -0.046 | P -0.086 | E -0.202 | S -0.054 | V 0 | I -0.146 | F -0.05 | Q -0.29 | G -0.091 | H 0.283 | M 0.115 | D -0.268 | L -0.157 | T -0.393 | Y -0.293 | A -0.105 | C 0.157
L30: W -0.036 | K 0.04 | R 0.085 | Y 0.193 | E 0.059 | S -0.06 | D -0.206 | I -0.703 | N -0.047 | P -0.414 | M 0.095 | G 0.092 | Q 0.107 | H -0.194 | V -0.135 | F -0.063 | T -0.222
K44: W -0.236 | M 0.116 | C -0.051 | A -0.255 | E 0.031 | R 0.14 | G 0.065 | T 0 | P -0.255 | S -0.125 | I -0.32 | H -0.341 | N -0.237 | L -0.009 | D 0.216 | F -0.259 | Q -0.053 | Y -0.599
K39: G 0.03 | T -0.029 | E -0.096 | I -0.045 | M 0.191 | A -0.081 | Q -0.232 | Y -0.278 | V -0.189 | D -0.208 | C -0.358 | S -0.251 | L -0.002 | F -0.315 | W -0.242 | P -0.091
E38: C -0.221 | F -0.053 | I -0.294 | Q -0.008 | N -0.271 | S -0.225 | W -0.127 | H -0.207 | P 0.188 | A -0.024 | K -0.199 | V -0.157 | L -0.115 | R -0.147 | T -0.252 | M 0.042
S46: F -0.035 | K -0.258 | A -0.11 | N -0.056 | C 0.073 | V 0.011 | T 0.024 | I 0.137 | P -0.109 | E -0.023 | L 0.051 | M -0.266 | R -0.143 | G -0.005 | W -0.14 | H -0.203 | D -0.197 | Y -0.335 | Q -0.331
